Measurements as given in US20210008201A1, “ANTIBODIES FOR EPIDERMAL GROWTH FACTOR RECEPTOR 3 (HER3)” (NOVARTIS AG, priority 2011, published 2021).

Assays:
[1] = system: HER3 phosphorylation in MCF7 cells; assay: Phospho-HER3 in vitro cell assay, neuregulin stimulated MCF7 cells; assay type: cell-based, human; details: both ligand-dependent and ligand-independent manner; summary of cell signaling assays
Procedure: MCF-7 cells were routinely maintained in DMEM/F12, 15 mM HEPES, L-glutamine, 10% FCS and SK-Br-3 in McCoy's 5a, 10% FCS, 1.5 mM L-glutamine. Sub-confluent MCF7 or SK-Br-3 cells grown in complete media were harvested with accutase (PAA Laboratories) and resuspended in the appropriate growth media at a final concentration of […]. 100 μL of cell suspension was then added to each well of a 96-well flat bottomed plate (Nunc) to give a final density of 5×10^4 cells/well. MCF7 cells were allowed to attach for approximately 3 hours before the media was exchanged for starvation media containing 0.5% FBS. All plates were then incubated overnight at 37° C. prior to treatment with the appropriate concentration of HER3 antibodies (diluted in the appropriate media) for 80 minutes at 37° C. MCF7 cells were treated with 50 ng/mL neuregulin 1-β1 EGF domain (R&D Systems) for the final 20 minutes to stimulate HER3 phosphorylation. All media was gently aspirated and the cells washed with ice-cold PBS containing 1 mM CaCl2) and 0.5 mM MgCl2 (Gibco). The cells were lysed by adding 50 μL ice-cold lysis buffer (20 mM Tris (pH8.0)/137 mM NaCl/10% Glycerol/2 mM EDTA/1% NP-40/1 mM sodium orthovanadate/, Aprotinin (10 μg/mL)/Leupeptin (10 μg/mL)) and incubated on ice with shaking for 30 minutes. Lysates were then collected and spun at 1800 g for 15 minutes at 4° C. to remove cell debris. 20 μL of lysate was added to a pre-prepared capture plate.
HER3 was captured from the lysate by incubating the plate at room temperature for one hour with shaking before the lysate was aspirated and the wells washed with 1× Tris buffer (Mesoscale Discovery)/0.1% Tween-20. Phosphorylated HER3 was detected using 0.75 μg/mL biotinylated anti-phosphotyrosine antibody (R&D Systems) prepared in 1% BSA/1× Tris/0.1% Tween-20 by incubating with shaking at room temperature for 1 hour. The wells were washed four times with 1× Tris/0.1% Tween-20 and biotinylated proteins were detected by incubating with S-Tag labelled Streptavidin (Mesoscale Discovery) diluted in 1% BSA/1× Tris/0.1% Tween-20 for one hour at room temperature. Each well was aspirated and washed four times with 1× Tris/0.1% Tween-20 before adding 20 μL of Read buffer T with surfactant (Mesoscale Discovery) and the signal quantified using a Mesoscale Sector Imager. Antibodies MOR06391 or MOR03207 were included in signalling experiments as isotype controls.

BxPC3 tumors = assay: In vivo BxPC3 efficacy studies; design: species or system female athymic nu/nu Balb/C mice; details: BxPC3 tumor growth model
Procedure: BxPC3 cells were cultured in RPMI-1640 medium containing 10% heat-inactivated fetal bovine serum without antibiotics until the time of implantation.
Female athymic nu/nu Balb/C mice (Harlan Laboratories) were implanted subcutaneously with 10×10^6 cells in a mixture of 50% phosphate buffered saline with 50% matrigel. The total injection volume containing cells in suspension was 200 μL. Once tumors had reached approximately 200 mm^3 in size, animals were enrolled in the efficacy study. In general, a total of 10 animals per group were enrolled in studies.
Animals were dosed intravenously via lateral tail vein injection. An initial loading dose of 40 mg/kg was given for the first dose. After the initial dose, animals were on a 20 mg/kg, every other day schedule for the duration of the study (25 days under treatment). Tumor volume and T/C values were calculated as previously detailed.

BT-474 xenografts = assay: In vivo BT-474 efficacy studies; design: species or system female athymic nu/nu Balb/C mice; details: antibody 20 mg/kg in combination with sub-optimal trastuzumab 1 mg/kg
Procedure: BT-474 cells were cultured in DMEM containing 10% heat-inactivated fetal bovine serum without antibiotics until the time of implantation.
One day before cell inoculation, female athymic nu/nu Balb/C mice (Harlan Laboratories) were implanted subcutaneously with a sustained release 17β-estradiol pellet (Innovative Research of America) to maintain serum estrogen levels. One day after 17β-estradiol pellet implantation, 5×10^6 cells were injected orthotopically into the 4th mammary fatpad in a suspension containing 50% phenol red-free matrigel (BD Biosciences) in Hank's balanced salt solution. The total injection volume containing cells in suspension was 200 μL. 20 days following cell implantation animals with a tumor volume of approximately 200 mm^3 were enrolled in the efficacy study. In general, a total of 10 animals per group were enrolled in efficacy studies.
An initial loading dose of 40 mg/kg was given for the first dose. […] For the duration of the studies, tumor volume was measured by calipering twice per week. Percent treatment/control (T/C) values were calculated using the following formula: […]
Body weight was measured twice per week and dose was body weight adjusted. The % change in body weight was calculated as (BWcurrent−BWinitial)/(BWinitial)×100. […]
All data were expressed as mean standard error of the mean (SEM). […]

Molecule | inhibition of cellular HER3 activity [1] | inhibition of ligand driven tumor growth (BxPC3 tumors) | % T/C (BT-474 xenografts) [%]
MOR09824: anti-HER3 human antibody, IgG1/kappa; VH SEQ ID NO: 33, VL SEQ ID NO: 32 (antibody, V domains shown) VH: QVQLVESGGGLVQPGGSLRLSCAASGFTFSSYAMSWVRQAPGKGLEWVSVISAWGHVKYYADSVKGRFTISRDNSKNTLYLQMNSLRAEDTAVYYCARWGDEGFDIWGQGTLVTVSS VL: DIQMTQSPSSLSASVGDRVTITCRASQGISNWLAWYQQKPGKAPKLLIYGASSLQSGVPSRFSGSGSGTDFTLTISSLQPEDFAVYYCQQYSSFPTTFGQGTKVEIK | capable of inhibiting cellular HER3 activity |  | 
MOR09974: anti-HER3 human antibody, IgG1/kappa; VH SEQ ID NO: 69, VL SEQ ID NO: 68 (antibody, V domains shown) VH: QVQLVESGGGLVQPGGSLRLSCAASGFTFSSYAMSWVRQAPGKGLEWVSVINPSGNFTNYADSVKGRFTISRDNSKNTLYLQMNSLRAEDTAVYYCARWGDEGFDIWGQGTLVTVSS VL: DIQMTQSPSSLSASVGDRVTITCRASQGISNWLAWYQQKPGKAPKLLIYGASSLQSGVPSRFSGSGSGTDFTLTISSLQPEDFAVYYCQQYSSFPTTFGQGTKVEIK | capable of inhibiting cellular HER3 activity |  | 
MOR10701: anti-HER3 human antibody, IgG1/kappa; VH SEQ ID NO: 105, VL SEQ ID NO: 104 (antibody, V domains shown) VH: EVQLLESGGGLVQPGGSLRLSCAASGFTFSSYAMSWVRQAPGKGLEWVSVTGAVGRSTYYPDSVKGRFTISRDNSKNTLYLQMNSLRAEDTAVYYCARWGDEGFDIWGQGTLVTVSS VL: DIQMTQSPSSLSASVGDRVTITCRASQGISNWLAWYQQKPGKAPKLLIYGASSLQSGVPSRFSGSGSGTDFTLTISSLQPEDFATYYCQQYSSFPTTFGQGTKVEIK | capable of inhibiting cellular HER3 activity | very effectively inhibited ligand driven tumor growth | −50
MOR12609: anti-HER3 human antibody, IgG1/kappa; VH SEQ ID NO: 357, VL SEQ ID NO: 356 (antibody, V domains shown) VH: QVQLVESGGGLVQPGGSLRLSCAASGFTFSSYAMSWVRQAPGKGLEWVSVINGLGYTTFYADSVKGRFTISRDNSKNTLYLQMNSLRAEDTAVYYCARWGDEGFDIWGQGTLVTVSS VL: DIQMTQSPSSLSASVGDRVTITCRASQGISNWLAWYQQKPGKAPKLLIYGASSLQSGVPSRFSGSGSGTDFTLTISSLQPEDFAVYYCQQYSSFPTTFGQGTKVEIK | capable of inhibiting cellular HER3 activity |  | 
MOR10702: anti-HER3 human antibody, IgG1/kappa; VH SEQ ID NO: 123, VL SEQ ID NO: 122 (antibody, V domains shown) VH: EVQLLESGGGLVQPGGSLRLSCAASGFTFSSYAMSWVRQAPGKGLEWVSVISAWGHVKYYADSVKGRFTISRDNSKNTLYLQMNSLRAEDTAVYYCARWGDEGFDIWGQGTLVTVSS VL: DIQMTQSPSSLSASVGDRVTITCRASQGISNWLAWYQQKPGKAPKLLIYGASSLQSGVPSRFSGSGSGTDFTLTISSLQPEDFATYYCQQYSSFPTTFGQGTKVEIK | capable of inhibiting cellular HER3 activity |  | 
MOR12610: anti-HER3 human antibody, IgG1/kappa; VH SEQ ID NO: 375, VL SEQ ID NO: 374 (antibody, V domains shown) VH: QVQLVESGGGLVQPGGSLRLSCAASGFTFSSYAMSWVRQAPGKGLEWVSGTGPYGGTYYPDSVKGRFTISRDNSKNTLYLQMNSLRAEDTAVYYCARWGDEGFDIWGQGTLVTVSS VL: DIQMTQSPSSLSASVGDRVTITCRASQGISNWLAWYQQKPGKAPKLLIYGASSLQSGVPSRFSGSGSGTDFTLTISSLQPEDFAVYYCQQYSSFPTTFGQGTKVEIK | capable of inhibiting cellular HER3 activity |  | 
